Assay results from the supplement of paper PMC7125110.
± gives the standard error. Fewer inactive variants are shown than the library holds.

B1: glmS ribozyme (parent)
chain: AUAAAAGCGCCAGAACUACAGAAAUGUAGUUGACGAGGAGGAGGUUUAUCGAAUUUUCGGCGGAUGCCUCCAAA

How the values were obtained:
Details in all cases: with glucosamine-6-phosphate
glucosamine-6-phosphate [1] = variants of: B1; experiment: self-cleavage kobs at 40 uM GlcN6P; higher = faster cleavage; RNA array
In short: (§1)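 Barcoded ribozyme variants were transcribed in situ on sequenced MiSeq chips by E. coli RNA polymerase. At 37 °C, a hybridised Cy3 probe tracked them while glucosamine-6-phosphate (40 μM to 10 mM) in HEPES/KCl/Mg(OAc)2 buffer flowed in and tiles were imaged over ~14 h. Per-tile medians of signals normalised to baseline and to non-cleaving reference variants were fit to one- or two-exponential decays, giving kobs. kcat and KM came from weighted Michaelis–Menten fits across concentrations.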

glucosamine-6-phosphate [2] = variants of: B1; experiment: self-cleavage kobs at 10000 uM GlcN6P; higher = faster cleavage; RNA array
In short: as §1

glucosamine-6-phosphate [3] = variants of: B1; experiment: self-cleavage kobs at 160 uM GlcN6P; higher = faster cleavage; RNA array
In short: as §1

glucosamine-6-phosphate [4] = variants of: B1; experiment: self-cleavage kobs at 640 uM GlcN6P; higher = faster cleavage; RNA array
In short: as §1

glucosamine-6-phosphate [5] = variants of: B1; experiment: self-cleavage kobs at 2500 uM GlcN6P; higher = faster cleavage; RNA array
In short: as §1

Variant	self-cleavage kobs at 40 uM GlcN6P (glucosamine-6-phosphate [1]) [s⁻¹]	self-cleavage kobs at 10000 uM GlcN6P (glucosamine-6-phosphate [2]) [s⁻¹]	self-cleavage kobs at 160 uM GlcN6P (glucosamine-6-phosphate [3]) [s⁻¹]	self-cleavage kobs at 640 uM GlcN6P (glucosamine-6-phosphate [4]) [s⁻¹]	self-cleavage kobs at 2500 uM GlcN6P (glucosamine-6-phosphate [5]) [s⁻¹]
AUAAAAGCGCCAGAACUACAGAAAUGUAGUUUAAGAGGAGGAGGUUUUUCGAAUUUUCGGCGGAUGCCUACAAA [G32U C34A A48U C70A]	< 1e-05	–	–	–	–
AUAAAAGCGCCAGAACUACAGAAAUGUAGUUUACGAGGAGGAGGUUUAUCGCAUGUUCGGUGGAUGCCUCCAAA [G32U A52C U55G C61U]	< 1e-05	< 1e-05	–	–	–
AUAAAAGCGCCAGAACUACAGAAAUGUAGUUUACGAGGAGGUGGUUUAUCGAAUUUUUGGCGGAUGCCUCCAAA [G32U A42U C58U]	< 1e-05	3.73e-05 ± 1.3e-05	–	–	–
AUAAAAGCGCCAGAACUACAGAAAUGUAGUUUACAAGGAGGAGGUUUAUCGAAUUUCCGGCGGAUGCCUCCAAA [G32U G35A U57C]	< 1e-05	–	< 1e-05	–	–
AUAAAAGCGCCAGAACUACAGAAAUGUAGUUCACGAGGAGGAGGUUCAUCGAAUUUUCGGCGGAUGCCUCCAAA [G32C U47C]	< 1e-05	–	< 1e-05	–	–
AUAAAAGCGCCAGAACUACAGAAAUGUAGUUCACGAGGAGGAGGUUUAUCGAAUUUUCGGCGGAUUCCUCCAAA [G32C G66U]	< 1e-05	–	< 1e-05	–	–
AUAAAAGCGCCAGAACUACAGAAAUGUAGUUUACGAGGAGGAGGUUUAUCGAAUUUUGGUCGGAUGCCUCCAAA [G32U C58G G60U]	< 1e-05	–	–	–	–
AUAAAAGCGCCAGAACUACAGAAAUGUAGUUCACGAGGAGGAGGUUUAUCGAAUUUUCGGCGGAAGACUCCAAA [G32C U65A C67A]	0.000151 ± 3.6e-05	0.00023 ± 5.9e-05	–	0.000426 ± 0.0001	–
AUAAAAGCGCCAGAACUACAGAAAUGUAGUUUAGGAGGAGGAGGUUUAUCGAAUUUUCGGCGGAUGCCUCCAAA [G32U C34G]	< 1e-05	< 1e-05	< 1e-05	< 1e-05	–
AUAAAAGCGCCAGAACUACAGAAAUGUAGUUCACGAGGAGGAGGUUUAUCGAAUUUACGGCGGAUGCCUCCAAA [G32C U57A]	< 1e-05	–	–	–	–
AUAAAAGCGCCAGAACUACAGAAAUGUAGUUUACGCGGAGGAGGUUUAUCGAAUUUUCGGCGGAUGCAUCCAAA [G32U A36C C68A]	< 1e-05	< 1e-05	–	–	–
AUAAAAGCGCCAGAACUACAGAAAUGUAGUUGCCGGGGAGGAGGUUUAUCGAAUUUUCGGCUGAUACCUCCAAA [A33C A36G G62U G66A]	< 1e-05	–	–	< 1e-05	< 1e-05
AUAAAAGCGCCAGAACUACAGAAAUGUAGUUUACGAGGAGGAGGUUUAUCGAAUUUUCGGCGGAUGCCGCCAAA [G32U U69G]	7.55e-05 ± 1.7e-05	9.29e-05 ± 1.7e-05	–	0.000345 ± 8.4e-05	–
AUAAAAGCGCCAGAACUACAGAAAUGUAGUUGCCGGGGAAGAGGUUUAUCGAAUUUUCGGCGGAUGCCUCCAAA [A33C A36G G40A]	< 1e-05	< 1e-05	–	< 1e-05	< 1e-05
AUAAAAGCGCCAGAACUACAGAAAUGUAGUUUACGAGGAGGAGGUUUAUCGGAUUUUCGGCGGAUGCGUCCAAA [G32U A52G C68G]	0.000277 ± 9.2e-05	0.000398 ± 9.5e-05	–	–	–
AUAAAAGCGCCAGAACUACAGAAAUGUAGUUUACGAGGAGGAGGUUUAUCGAAUUUUCGGCAGAUGCCUCCAAA [G32U G62A]	< 1e-05	< 1e-05	–	< 1e-05	< 1e-05

Variant	self-cleavage kobs at 40 uM GlcN6P (glucosamine-6-phosphate [1]) [s⁻¹]	self-cleavage kobs at 10000 uM GlcN6P (glucosamine-6-phosphate [2]) [s⁻¹]	self-cleavage kobs at 160 uM GlcN6P (glucosamine-6-phosphate [3]) [s⁻¹]	self-cleavage kobs at 640 uM GlcN6P (glucosamine-6-phosphate [4]) [s⁻¹]	self-cleavage kobs at 2500 uM GlcN6P (glucosamine-6-phosphate [5]) [s⁻¹]
AUAAAAGCGCCAGAACUACAGAAAUGUAGUUUACGAGGAGGAGGUUUAUCGAAUUUUCGGCGUAUGCCUCCAAA [G32U G63U]	< 1e-05	< 1e-05	–	–	< 1e-05
AUAAAAGCGCCAGAACUACAGAAAUGUAGUUUACGAGGAGGAGGUUUAUCGAAUUUUCGGCGGGUGCCUCUAAA [G32U A64G C71U]	< 1e-05	0.000175 ± 3.6e-05	–	–	0.000459 ± 0.00016
AUAAAAGCGCCAGAACUACAGAAAUGUAGUUUACGAGGAUGAGGUCUAUCGAAGUUUCGGCGGAUGCCUGCAAA [G32U G40U U46C U54G C70G]	< 1e-05	–	–	–	–
AUAAAAGCGCCAGAACUACAGAAAUGUAGUUCACGAGGAGGAGGUUUAUCAAAUUUUCGGCGGAUACCUCCAAA [G32C G51A G66A]	< 1e-05	< 1e-05	–	< 1e-05	< 1e-05
AUAAAAGCGCCAGAACUACAGAAAUGUAGUUUACGCGGAGGAGGUUUAUCGAUAUUUCGGCGUAUGCCUCCAAA [G32U A36C A53U U54A G63U]	< 1e-05	< 1e-05	–	–	–
AUAAAAGCGCCAGAACUACAGAAAUGUAGUUCACGAGGAGGAGUUUUAUCGAAUUAUCGGCGGAUGCCUCCAAA [G32C G44U U56A]	< 1e-05	< 1e-05	–	< 1e-05	–
AUAAAAGCGCCAGAACUACAGAAAUGUAGUUCACGAGGAGGAGCUUUAUCGAAUCUUCGGCGGAUGCAUUCAAA [G32C G44C U55C C68A C70U]	< 1e-05	–	–	–	< 1e-05
AUAAAAGCGCCAGAACUACAGAAAUGUAGUUUACGAUGGGGAGGUUUAUCGAAUUUUCGGCGGAUGCCUCCAAA [G32U G37U A39G]	< 1e-05	–	–	–	< 1e-05
AUAAAAGCGCCAGAACUACAGAAAUGUAGUUUAGGAGGAGGAGGUUUAUCGAAUUUUCGGCGGAUGCGUCCAAA [G32U C34G C68G]	4.91e-05 ± 1.8e-05	3.41e-05 ± 1.6e-05	–	–	–
AUAAAAGCGCCAGAACUACAGAAAUGUAGUUUACGAGGAGGAGGUUUAUCGAAUUUUGGGCGGGUGACUCCAAA [G32U C58G A64G C67A]	7.51e-05 ± 2.6e-05	0.000152 ± 2.4e-05	–	–	–
AUAAAAGCGCCAGAACUACAGAAAUGUAGUUCACGAGGAGGAGGUUGAUCGAAUUUUCGGCGGAUGGCUCCAAA [G32C U47G C67G]	0.000392 ± 0.00015	6.01e-05 ± 2.5e-05	–	–	–
AUAAAAGCGCCAGAACUACAGAAAUGUAGUUUACGAGGAGGAGGUUUAUCGAAUUUUCGGCGUAUGCCUCAAAA [G32U G63U C71A]	< 1e-05	< 1e-05	–	< 1e-05	–
AUAAAAGCGCCAGAACUACAGAAAUGUAGUUUACGAGGAGGAGGUUGAUCGAAUUUUCGGCGGAUGCCGCCAAA [G32U U47G U69G]	0.000146 ± 3.4e-05	0.000404 ± 7.2e-05	–	–	–
AUAAAAGCGCCAGAACUACAGAAAUGUAGUUCACAAGGAGGAGGUUUUUCGUACUUUCGGCGGAUGUCUCCAAA [G32C G35A A48U A52U U54C C67U]	< 1e-05	–	< 1e-05	< 1e-05	–
AUAAAAGCGCCAGAACUACAGAAAUGUAGUUUACGGGGAGCAGGUUUAUCGUAUUUUCGGCGGAUGACUCCAAA [G32U A36G G41C A52U C67A]	< 1e-05	–	–	–	–
AUAAAAGCGCCAGAACUACAGAAAUGUAGUUUACGAGGAGGAGAUUUAUCGAAUUUUCGGCGGAUGCCUCCAAA [G32U G44A]	< 1e-05	–	–	–	–
